Positions count from the first letter of the chain named.
B1: affinity matured anti-NSP4 antibody clone 51.72 (Fab, V domains shown)
VH: EVQLVESGGGLVQPGGSLRLSCAASGFTFSGSGIHWVRQAPGKGLEWVAWISPTGGNTYYADSVKGRFTISADTSKNTAYLQMNSLRAEDTAVYYCAKSLFHNVAFDYWGQGTLVTVSS
VL: DIQMTQSPSSLSASVGDRVTITCRASQDVSTAVAWYQQKPGKAPKLLIYSASFLYSGVPSRFSGSGSGTDFTLTISSLQPEDFATYYCQQSYTAPPTFGQGTKVEIKR
B2: anti-NSP4 antibody 4-4 (antibody, V domains shown)
VH: EVQLVESGGGLVQPGGSLRLSCAASGFTFTSTSIHWVRQAPGKGLEWVAEITPHGGYTNYADSVKGRFTISADTSKNTAYLQMNSLRAEDTAVYYCARGRTKWGWLYGMDYWGQGTLVTVSS
VL: B1 VL with A94T
B3: anti-NSP4 antibody 2-2 (antibody, V domains shown)
VH: EVQLVESGGGLVQPGGSLRLSCAASGFTFSSTAISWVRQAPGKGLEWVGEIYPSDGYTDYADSVKGRFTISADTSKNTAYLQMNSLRAEDTAVYYCARVKWAVSSLGVMDYWGQGTLVTVSS
VL: B1 VL with A94T
B4: anti-NSP4 antibody 4-3 (antibody, V domains shown)
VH: EVQLVESGGGLVQPGGSLRLSCAASGFTFSSYDISWVRQAPGKGLEWVGTISPYDGYTDYADSVKGRFTISADTSKNTAYLQMNSLRAEDTAVYYCARYIRRYSVHYGMDYWGQGTLVTVSS
VL: B1 VL with A94T
B5: anti-NSP4 antibody 2-4 (antibody, V domains shown)
VH: EVQLVESGGGLVQPGGSLRLSCAASGFTFSDYWISWVRQAPGKGLEWVAGISPNNGDTYYADSVKGRFTISADTSKNTAYLQMNSLRAEDTAVYYCAREDDDERDYAMDYWGQGTLVTVSS
VL: B1 VL with A94T
B6: anti-NSP4 antibody 1-5 (antibody, V domains shown)
VH: EVQLVESGGGLVQPGGSLRLSCAASGFTFTNNSISWVRQAPGKGLEWVGAISPNNGSTYYADSVKGRFTISADTSKNTAYLQMNSLRAEDTAVYYCARNAWHYSWVGVMDYWGQGTLVTVSS
VL: B1 VL with A94T
B7: affinity matured anti-NSP4 antibody clone 35.14 (Fab, V domains shown)
VH: EVQLVESGGGLVQPGGSLRLSCAASGFTFSDNDISWVRQAPGKGLEWVGSISPDNGDTNYADSVKGRFTISADTSKNTAYLQMNSLRAEDTAVYYCARDDVPAVFTSAMDYWGQGTLVTVSS
VL: B1 VL with T93G, A94F, P96L
B8: anti-NSP4 antibody 2-1 (antibody, V domains shown)
VH: EVQLVESGGGLVQPGGSLRLSCAASGFTFTDYSIHWVRQAPGKGLEWVAEIYPYSGDTYYADSVKGRFTISADTSKNTAYLQMNSLRAEDTAVYYCARDGDGWFDWAMDYWGQGTLVTVSS
VL: B1 VL with A94T
B9: anti-NSP4 antibody 1-3 (antibody, V domains shown)
VH: EVQLVESGGGLVQPGGSLRLSCAASGFTFSDNWISWVRQAPGKGLEWVGYIYPASGYTDYADSVKGRFTISADTSKNTAYLQMNSLRAEDTAVYYCASDSPHAYWYAMDYWGQGTLVTVSS
VL: B1 VL with A94T
B10: anti-NSP4 antibody 5-2 (antibody, human IgG1, V domains shown)
VH: EVQLVESGGGLVQPGGSLRLSCAASGFTFSNTYISWVRQAPGKGLEWVGFIYPANGATYYADSVKGRFTISADTSKNTAYLQMNSLRAEDTAVYYCARRYRLSFDYWGQGTLVTVSS
VL: B1 VL with A94T
notes: also called Ab 5-2
B11: anti-NSP4 antibody 2-5 (antibody, V domains shown)
VH: EVQLVESGGGLVQPGGSLRLSCAASGFTFTGYGISWVRQAPGKGLEWVGWIYPASGATYYADSVKGRFTISADTSKNTAYLQMNSLRAEDTAVYYCARHRAFDWYPYYIGSSVMDYWGQGTLVTVSS
VL: B1 VL with A94T
B12: anti-NSP4 antibody 1-2 (antibody, V domains shown)
VH: EVQLVESGGGLVQPGGSLRLSCAASGFTFSGYSIHWVRQAPGKGLEWVAGISPTNGYTDYADSVKGRFTISADTSKNTAYLQMNSLRAEDTAVYYCARLVFYRGVMDYWGQGTLVTVSS
VL: B1 VL with A94T
B13: anti-NSP4 antibody 4-2 (antibody, V domains shown)
VH: EVQLVESGGGLVQPGGSLRLSCAASGFTFSGSDISWVRQAPGKGLEWVGEIYPSNGDTYYADSVKGRFTISADTSKNTAYLQMNSLRAEDTAVYYCARSVRPSWWAMDYWGQGTLVTVSS
VL: B1 VL with A94T
B14: anti-NSP4 antibody 2-3 (antibody, V domains shown)
VH: EVQLVESGGGLVQPGGSLRLSCAASGFTFTDSDISWVRQAPGKGLEWVAWISPSDGATDYADSVKGRFTISADTSKNTAYLQMNSLRAEDTAVYYCAHEASDDDYAIDYWGQGTLVTVSS
VL: B1 VL with A94T
B15: anti-NSP4 antibody 1-1 (antibody, V domains shown)
VH: EVQLVESGGGLVQPGGSLRLSCAASGFTFSGSWISWVRQAPGKGLEWVGTISPYNGSTYYADSVKGRFTISADTSKNTAYLQMNSLRAEDTAVYYCARVLRPKVYASVMDYWGQGTLVTVSS
VL: B1 VL with A94T
B16: affinity matured anti-NSP4 antibody clone 51.51 (Fab, V domains shown)
VH: B1 VH with K98R, S99G
VL: B1 VL
B17: affinity matured anti-NSP4 antibody clone 35.77 (Fab, V domains shown)
VH: B1 VH with S99R, L100H, F101L
VL: B1 VL with S91A, T93S
B18: affinity matured anti-NSP4 antibody clone 51.50 (Fab, V domains shown)
VH: B1 VH
VL: B1 VL with S91A, Y92N, T93S, A94T
B19: affinity matured anti-NSP4 antibody clone 51.82 (Fab, V domains shown)
VH: B1 VH with K98R, S99G
VL: B1 VL with S91T, T93N
B20: affinity matured anti-NSP4 antibody clone 35.50 (Fab, V domains shown)
VH: B7 VH
VL: B1 VL with T93D, A94F, P96L
B21: affinity matured anti-NSP4 antibody clone 51.30 (Fab, V domains shown)
VH: B1 VH with S52P, P53T, T54A
VL: B1 VL
B22: affinity matured anti-NSP4 antibody clone 35.62 (Fab, V domains shown)
VH: B7 VH
VL: B1 VL with Y92A, T93G, A94F, P96L

Tests used:
[1] = target: T1, mouse NSP4 (mNSP4), form not stated in Example 6 (mouse, UniProt Q14B24 40-284, limits assumed); assay: ratio of phage IC50 against the parental clone 51.WT
T1 construct: also called recombinant mouse NSP4; purified mouse NSP4
T1 sequence (looked up): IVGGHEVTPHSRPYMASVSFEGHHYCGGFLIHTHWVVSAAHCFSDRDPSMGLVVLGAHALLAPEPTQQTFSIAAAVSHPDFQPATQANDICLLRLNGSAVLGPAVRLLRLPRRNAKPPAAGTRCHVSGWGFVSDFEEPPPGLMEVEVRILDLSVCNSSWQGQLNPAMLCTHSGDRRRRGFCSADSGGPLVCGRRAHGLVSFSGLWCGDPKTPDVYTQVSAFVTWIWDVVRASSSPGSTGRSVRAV

[2] = target: T1, mouse NSP4 (mNSP4), form not stated in …; assay: phage competition binding assay (phage IC50), soluble mNSP4 competitor
[3] = target: T2, mouse active NSP4 (mA-NSP4) (mouse, UniProt Q14B24 40-284); assay: BLI; no affinity
T2 chain: T1 sequence (looked up)

[4] = target: T3, mouse zymogen NSP4 (mZ-NSP4) (mouse, UniProt Q14B24 36-284); assay: BLI; no affinity
T3 chain: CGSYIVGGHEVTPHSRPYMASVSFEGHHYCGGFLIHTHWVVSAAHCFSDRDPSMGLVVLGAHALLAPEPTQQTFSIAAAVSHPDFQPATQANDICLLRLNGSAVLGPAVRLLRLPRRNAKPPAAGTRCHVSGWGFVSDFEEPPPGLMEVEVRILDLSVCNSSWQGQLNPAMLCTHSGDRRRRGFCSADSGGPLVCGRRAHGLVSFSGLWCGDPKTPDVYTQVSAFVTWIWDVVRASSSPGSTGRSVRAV

[5] = target: T4, human active NSP4 (hA-NSP4) (human, UniProt Q6UWY2 34-283); assay: competition phage ELISA (phage IC50): phage clone preincubated with soluble hA-NSP4, then on NSP4-coated wells
T4 construct: range 34-283; Insect-cell material of the same construct was used for the crystal structures; also called mature form of human NSP4
T4 sequence (looked up): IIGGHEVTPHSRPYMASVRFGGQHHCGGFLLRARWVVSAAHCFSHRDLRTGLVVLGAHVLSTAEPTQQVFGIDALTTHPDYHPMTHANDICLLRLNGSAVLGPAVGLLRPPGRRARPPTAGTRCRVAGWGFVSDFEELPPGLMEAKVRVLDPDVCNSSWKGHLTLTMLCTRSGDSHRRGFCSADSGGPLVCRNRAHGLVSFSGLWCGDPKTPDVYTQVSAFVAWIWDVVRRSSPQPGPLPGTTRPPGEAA

[6] = target: T1, mouse NSP4 (mNSP4), form not stated in …; assay: ratio of phage IC50 against the parental clone 35.WT
[7] = target: T5, human NSP4 (hNSP4), form not stated in Example 6 (human, UniProt Q6UWY2 34-283, limits assumed); assay: phage competition binding assay (phage IC50), soluble hNSP4 competitor
T5 sequence (looked up): T4 sequence (looked up)

[8] = target: T6, mouse active NSP4 (mA-NSP4) (mouse, UniProt Q14B24 40-284); assay: competition phage ELISA (phage IC50): phage clone preincubated with soluble mA-NSP4, then on NSP4-coated wells
T6 construct: mature; Made from mZ by enteropeptidase cleavage; also called mature form of mouse NSP4
T6 sequence (looked up): T1 sequence (looked up)
Description: Phage at sub-saturating concentrations were first incubated with increasing concentrations of target NSP4 antigen (either hZ, hA, mZ, or mA) for 1 to 2 hour(s), and then transferred to wells coated with the same NSP4 antigen to capture the unbound phage.
Briefly, 2 ug/ml of NSP4 (hZ, hA, mZ, or mA variants) was coated on wells overnight at 4° C. in PBS supplemented with 0.5% BSA. Each individual phage clone (at 0.01 OD/ml) was purified and incubated with increasing concentrations of soluble NSP4 protein for 2 h at room temperature before being placed into wells coated with immobilized NSP4 protein for 15 min at room temperature. The wells were then washed with PBS supplemented with 0.05% Tween-20 for 10 times and developed using anti-M13 phage antibody conjugated with HRP (New England Biolabs). […] The soluble phage:antigen complex, with higher likelihood to be high-affinity phage clones, would thus be removed through successive washing steps, resulting in lower A450 signal at any given concentration of soluble antigen. Consequently, higher affinity phage clones would have a lower phage IC50 value, with a concomitant leftward-shift in the binding curves, compared to lower affinity phage clones.

| Binder | IC50 [2] | Kd [3] | Kd [4] | IC50 [5] | further results |
| --- | --- | --- | --- | --- | --- |
| B1 | 0.375 nM |  |  |  | Affinity improvement to mNSP4 [1]: 49.8 fold |
| B2 |  | > 1000 nM | > 1000 nM | 1.48 nM |  |
| B3 |  | > 1000 nM |  | 10.1 nM |  |
| B4 |  | > 1000 nM | > 1000 nM |  |  |
| B5 |  |  |  | 1.63 nM |  |
| B6 |  | > 1000 nM | > 1000 nM |  |  |
| B7 | 0.048 nM |  |  |  | Affinity improvement to mNSP4 [6]: 2.7 fold; IC50 [7]: 23.4 nM |
| B8 |  |  |  | 3.81 nM |  |
| B9 |  | > 1000 nM | > 1000 nM |  |  |
| B10 |  |  |  |  | IC50 [8]: 25 nM |
| B11 |  | > 1000 nM |  | 5130 nM |  |
| B12 |  | > 1000 nM | > 1000 nM |  |  |
| B13 |  | > 1000 nM | > 1000 nM | 84.8 nM |  |
| B14 |  |  |  | 4.96 nM |  |
| B15 |  | > 1000 nM | > 1000 nM |  |  |
| B16 | 0.296 nM |  |  |  | Affinity improvement to mNSP4 [1]: 63 fold |
| B17 | 0.064 nM |  |  |  | Affinity improvement to mNSP4 [6]: 2 fold |
| B18 | 0.105 nM |  |  |  | Affinity improvement to mNSP4 [1]: 178 fold |
| B19 | 0.037 nM |  |  |  | Affinity improvement to mNSP4 [1]: 505 fold |
| B20 | 0.075 nM |  |  |  | Affinity improvement to mNSP4 [6]: 1.7 fold; IC50 [7]: 22.8 nM |
| B21 | 0.116 nM |  |  |  | Affinity improvement to mNSP4 [1]: 161 fold |
| B22 | 0.206 nM |  |  |  | Affinity improvement to mNSP4 [6]: 0.6 fold; IC50 [7]: 25.7 nM |
